In patent US9975933B2, “Tumor tissue-penetrating peptide specific to neuropilin and fusion protein having same peptide fused therein” (AJOU UNIVERSITY INDUSTRY-ACADEMIC COOPERATION FOUNDATION, priority 2013, dated 2018):

Experiments:
HUVEC [1] = assay: Tube formation assay in HUVEC; format: cell-based, human; settings: VEGF165A 20 ng/ml, 8 hours
Protocol: As an experiment confirming angiogenesis in vitro based thereon, tube formation assay was conducted. As an experimental method, 50 μl of ECMatrix was injected into 96-well plates and polymerized at 37° C. for 2 hours. […] The incubated cells were observed by a microscope to obtain images.

[2] = target: T1, NRP2-b1b2 (b1b2 domain of neuropilin-2) (Homo sapiens, UniProt O60462); assay: SPR (Biacore2000) binding to b1b2 domain of neuropilin-2; settings: for Kd: read-out: Binding affinity KD
T1 construct: b1b2 domains (275-595) of neuropilin-2
T1 sequence (O60462 275-595): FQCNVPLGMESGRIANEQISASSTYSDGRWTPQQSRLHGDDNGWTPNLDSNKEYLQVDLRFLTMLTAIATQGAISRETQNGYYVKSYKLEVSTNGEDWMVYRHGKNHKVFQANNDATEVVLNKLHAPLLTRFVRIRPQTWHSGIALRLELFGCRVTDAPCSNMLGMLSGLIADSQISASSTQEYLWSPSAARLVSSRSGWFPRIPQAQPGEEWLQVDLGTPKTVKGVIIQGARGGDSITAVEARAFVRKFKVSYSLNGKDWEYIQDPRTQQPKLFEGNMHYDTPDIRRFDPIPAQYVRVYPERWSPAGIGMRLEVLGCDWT
Protocol: (§1) Specifically, each b1b2 domain of neuropilin-1 and -2 was diluted with 10 mM Na-acetate buffer (pH 4.0), and fixed onto CMS sensor chips (GE healthcare, USA) in about 1000 response units (RU). […] After bond and dissociation analysis, the regeneration of CMS chip was performed by streaming a buffer (20 Mm NaOH, 1 M NaCl, pH 10.0) at a stream velocity 30 μl/min for 1 minute.

HUVEC [3] = assay: Transwell assay of vascular endothelial cell permeability; format: cell-based, human; settings: 30 minutes
Protocol: Based on the above experimental results, as experiments for confirming the improvement of vascular endothelial cell permeability, single peptides and Fc-TPP were treated to conduct Transwell assay.
Specifically, HUVECs were seeded into Transwell plate (Corning) at a density of 5×10^4 per well in a upper chamber using Endothelial Growth Medium, PromoCell (EGM) medium, followed by incubation at 37° C. for 3 days under 5% CO2 condition. […] Thereafter, Dextran-FITC (Sigma) 50 μg was put into the upper chamber and the medium of the lower chamber was sampled to measure its fluorescence after 30 minutes, using the principle that a fluorescent substance is observed in the lower chamber when the permeability in HUVECs was improved.

[4] = target: T2, NRP1-b1b2 (b1b2 domain of neuropilin-1) (Homo sapiens, UniProt O14786); assay: SPR (Biacore2000) binding to b1b2 domain of neuropilin-1; settings: for Association rate ka / Dissociation rate kd / Kd: NRP1-b1b2, SPR; for Kd: read-out: Binding affinity KD
T2 construct: b1b2 domains (273-586) of neuropilin-1
T2 sequence (O14786 273-586): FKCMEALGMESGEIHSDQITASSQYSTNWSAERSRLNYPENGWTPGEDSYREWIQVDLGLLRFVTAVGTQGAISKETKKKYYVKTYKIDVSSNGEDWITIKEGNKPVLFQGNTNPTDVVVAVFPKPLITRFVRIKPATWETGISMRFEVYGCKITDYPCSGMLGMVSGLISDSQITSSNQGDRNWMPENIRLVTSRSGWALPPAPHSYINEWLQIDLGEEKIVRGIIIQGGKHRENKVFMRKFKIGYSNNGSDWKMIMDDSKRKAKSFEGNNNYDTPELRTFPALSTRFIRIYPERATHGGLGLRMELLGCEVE
Protocol: as §1

FaDu tumor = assay: In vivo Evans Blue assay of vascular permeability; parameters: species or system Balb/c nude mice; settings: FaDu xenograft, 400 ng, 40 minutes
Protocol: Additionally, in order to confirm the improvement of vascular permeability in vivo, Evans Blue assay was conducted. […] 40 minutes after injection, the mice were perfused through the heart with PBS containing 1% BSA, and tumor tissues were extracted (FIG. 11d). Then, the extracted tissues were put into 1 ml of […] (Sigma) and reacted at 37° C. overnight under mild shaking condition. Thereafter, the supernatant was obtained from centrifugation to measure the absorbance (600 nm), and the amount that Evans Blue penetrated was quantified.

VE-cadherin in HUVEC = assay: Western blot of VE-cadherin in HUVEC; format: cell-based, human; settings: single peptides and Fc-TPP 1 μM, 10 minutes
Source text: During this process, a decrease in vascular endothelial (VE)-cadherin, phosphorylation, etc. of endothelial cells occur. That is, VE-cadherin or epithelial (E)-cadherin involves in adhesion between endothelial cells, while forming the base of adherent junction between endothelial cells and epithelial cells. The change in molecules relieve the density of adherent junction, which results in increasing permeability of blood vessels and improving intracellular permeability.
As an experimental method for indirectly confirming improvement of vascular permeability based thereon, a change in VE-cadherin was confirmed through a Western blot. Specifically, HUVECs were seeded into 6-well plates at a density of 3×10^5 per well, followed by incubation for 24 hours. Thereafter, single peptides and Fc-TPP were treated with 1 μM for 10 minutes to perform a Western blot. Gel subjected to SDS-PAGE was transported into PVDF membrane, a primary antibody (SantaCruz) and an HRP-conjugated secondary antibody (SantaCruz) which recognize VE-cadherin and (3-actin, respectively were used for detection. ImageQuant LAS4000 mini (GE Healthcare) was used for analysis.

E-cadherin in FaDu = assay: Western blot of E-cadherin in FaDu; format: cell-based, human
Protocol: In order to confirm the effect of TPP on cancer cells, a change in E-cadherin was analyzed in human head and neck cancer cell line FaDu, under the same conditions as above experiments through Western blot.

A431 tumor = assay: IHC of Fc-TPP infiltration in A431 tumor tissue; format: in vivo, Balb/c nude mice; settings: A431 xenograft, 5 mg/kg intravenously, 3 hours
Protocol: 3 hours after injection, tumors were extracted from mice to conduct immunohistochemistry experiment. The extracted tumors were cut into 20 μm thick using a frozen section method, and stained with a primary antibody, CD31 antibody (BD Pharmingen), and a TRITC (red fluorescence)-conjugated secondary antibody. Further, in order to observe Fc-TPP distributed in the tissues, FITC (green fluorescence)-conjugated antibodies recognizing Fc were used.

[5] = test system: neuropilin-1 and -2 expressed on cell surface (SK-OV-3); assay: FACS binding to neuropilin-1 and -2 expressed on cell surface; format: cell-based, human
Protocol: Specifically, after incubating human ovarian cancer cell line (SK-OV-3) under conditions of 5% CO2 and 37° C., 1×10^5 cells per sample were resuspended in a PBS buffer supplemented with 2% BSA and transferred to a FACS tube for conducting experiments.
Then, the mixture was reacted with cell line SK-OV-3 at 4° C. for 1 hour in the same manner and proteins were stained for conducting FACS analysis. […] This means that Fc-TPP binds specifically to neuropilin-1 and -2.
This means that the binding of Fc-TPP to neuropilin-1 and -2 is specific similar to the original ligands.

PPC-1 cells = assay: Confocal microscopy of intracellular penetration and co-localization with neuropilin; format: cell-based, human; settings: 1 μM, 37° C., 1 hour
Protocol: In order to confirm whether Fc-TPP has intracellular penetrating capacity by neuropilin-1 and -2, like other neuropilin ligands having intracellular penetrating capacity, confocal microscopy was used to observe intracellular penetration and co-localization with neuropilin-1 and -2.
Specifically, 5×10^4 PPC-1 cells were plated into 24-well plates containing DMEM medium 0.5 ml supplemented with 10% FBS per well, followed by incubation at 37° C. for 24 hours at 5% CO2. When the cells were stabilized, each well was washed with PBS 0.5 ml. […] After the medium was removed and each well was washed with PBS, Fc-TPP was stained with an antibody (Sigma) which specifically recognizes the FITC (green fluorescence)-conjugated Fc, and neuropilin-1 and -2 was stained with a primary antibody (SantaCruz) which recognizes each of them and with a TRITC (red fluorescence)-conjugated secondary antibody (Sigma). Nuclei were stained (blue fluorescence) with DAPI and observed under confocal microscopy.

[6] = single peptides and Fc-TPP 1 μM

Substance | tube formation of HUVEC (HUVEC [1]) | Association rate ka [2] | Dissociation rate kd [2] | permeability of HUVEC (Transwell, Dextran-FITC) (HUVEC [3]; control ligands about 1.3 nM) | Association rate ka [4] | Dissociation rate kd [4] | vascular permeability (Evans Blue) (FaDu tumor) | change in VE-cadherin (Western blot) (VE-cadherin in HUVEC) | Kd [2] [µM] | change in E-cadherin (Western blot) (E-cadherin in FaDu) | infiltration into tumor tissue (IHC) (A431 tumor) | permeability of HUVEC (Transwell, Dextran-FITC) (HUVEC [3]; [6]) | difference in binding affinity between GAGA linker and (GGGGS)3 linker clones ([4]; Fc-4A22 compared with Fc-15A22, b1b2 of neuropilin-1 and -2) | Kd [4] [µM] | cell binding capacity after reaction in advance with b1b2 domains of neuropilin-1 and -2 ([5]; 1 μM protein, 2 μM b1b2 domains, SK-OV-3) | cell binding capacity when mixed with parent ligand Sema3A or Sema3F ([5]; Sema3A (Fc-15A22P) / Sema3F (Fc-15F22P) 100 μg/ml) | cell binding capacity when mixed with VEGF165A ([5]; VEGF165A 1 μg/ml) | co-localization with neuropilin-1 and -2 (PPC-1 cells) | intracellular penetration (confocal microscopy) (PPC-1 cells)
VEGF165: Vascular endothelial cell growth factor-A isoform, neuropilin ligand, control group [reference compound] | increased tube formation | 1.17 ± 0.12 × 10^5 M^−1s^−1 | 3.73 ± 0.19 × 10^−3 s^−1 | permeability of HUVEC was improved | 9.75 ± 0.53 × 10^5 M^−1s^−1 | 3.42 ± 0.29 × 10^−3 s^−1 | increased vascular permeability | a decrease in VE-cadherin was observed | – | – | – | – | – | – | – | – | – | – | –
Fc-15A22: Human IgG1 Fc with TPP 15A22 (SEQ ID NO: 6) fused to its C-terminus (GGGGSGGGGSGGGGSHTPGNSNKWKHLQENKKGRNRR) | – | 3.94 ± 0.42 × 10^3 M^−1s^−1 | 3.87 ± 0.09 × 10^−2 s^−1 | – | 4.86 ± 0.98 × 10^3 M^−1s^−1 | 2.95 ± 0.04 × 10^−2 s^−1 | – | VE-cadherin was decreased | 9.8 | induced a decrease in E-cadherin | infiltrated into tumor cells | permeability of HUVEC was improved | about 10 times | 6.06 | – | – | – | – | –
Fc-15F22p: Human IgG1 Fc with TPP 15F22p (SEQ ID NO: 10) fused to its C-terminus (GGGGSGGGGSGGGGSREAPGAPRSPEPQDQKKPRPRR) | – | 1.34 ± 0.24 × 10^4 M^−1s^−1 | 1.23 ± 0.16 × 10^−3 s^−1 | – | 1.73 ± 0.26 × 10^4 M^−1s^−1 | 1.38 ± 0.12 × 10^−3 s^−1 | – | induced a decrease in VE-cadherin | 0.0924 | E-cadherin was decreased | – | improvement of vascular permeability was induced | – | 0.0797 | remarkably reduced | reduced | reduced | co-localized with neuropilin-1 and -2 | penetrated into cells
